# Laboratory results: the supplement of paper PMC9112550, “Optimization of the antimicrobial peptide Bac7 by deep mutational scanning” (BMC Biology, 2022)
# System: Escherichia coli TOP10
# Experiment: shrunken log2 fold change of peptide-encoding DNA abundance (4.5 h post-induction vs induction); higher = less antimicrobial activity (less host growth inhibition)
# Conditions: time post-induction: 4.5 h; library: site-saturation at positions 5, 18, 19, 20
# 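Also: peptides expressed intracellularly from a pBAD plasmid library in pooled LB shake-flask culture, induced with 0.3% L-arabinose, DNA abundance read by NGS, three biological replicates, DESeq2 with apeglm shrinkage.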
row,Sequence,shrunken log2 fold change
1,RRIRPRPPRLPRPRPRPATGPRP,0.0771
2,RRIRWRPPRLPRPRPRPYMLPRP,-0.298
3,RRIRRRPPRLPRPRPRPIETPRP,-0.00874
4,RRIRSRPPRLPRPRPRPGYMPRP,-0.148
5,RRIRHRPPRLPRPRPRPWGRPRP,0.0574
6,RRIRWRPPRLPRPRPRPYIHPRP,-0.405
7,RRIRSRPPRLPRPRPRPYYIPRP,-0.461
8,RRIRKRPPRLPRPRPRPWYVPRP,-0.958
9,RRIRVRPPRLPRPRPRPNQEPRP,-0.176
10,RRIRGRPPRLPRPRPRPEMCPRP,1.4
11,RRIRDRPPRLPRPRPRPAFPPRP,-0.0705
12,RRIRERPPRLPRPRPRPKYPPRP,-0.00672
13,RRIRCRPPRLPRPRPRPFDKPRP,-0.493
14,RRIRIRPPRLPRPRPRPKTKPRP,-0.0929
15,RRIRLRPPRLPRPRPRPENYPRP,-0.041
16,RRIRWRPPRLPRPRPRPIFLPRP,-0.509
17,RRIRLRPPRLPRPRPRPEWKPRP,-0.16
18,RRIRDRPPRLPRPRPRPTEVPRP,0.121
19,RRIRYRPPRLPRPRPRPEWCPRP,-0.244
20,RRIRSRPPRLPRPRPRPRNSPRP,-0.264
21,RRIRIRPPRLPRPRPRPRDKPRP,0.115
22,RRIRHRPPRLPRPRPRPEGRPRP,-0.114

row,Sequence,shrunken log2 fold change
1,RRIRWRPPRLPRPRPRPESSPRP,0.759
2,RRIRLRPPRLPRPRPRPPGIPRP,-0.383
3,RRIRWRPPRLPRPRPRPSAQPRP,0.422
4,RRIRFRPPRLPRPRPRPRTKPRP,0.947
5,RRIRFRPPRLPRPRPRPRHEPRP,0.197
6,RRIRFRPPRLPRPRPRPNCQPRP,-0.508
7,RRIRTRPPRLPRPRPRPQGCPRP,0.0515
8,RRIRWRPPRLPRPRPRPDHAPRP,0.391
9,RRIRLRPPRLPRPRPRPSMEPRP,-0.371
10,RRIRWRPPRLPRPRPRPLPMPRP,0.105
11,RRIRVRPPRLPRPRPRPMCSPRP,-0.237
12,RRIRYRPPRLPRPRPRPCPHPRP,-0.0263
13,RRIRTRPPRLPRPRPRPLSVPRP,-0.0398
14,RRIRLRPPRLPRPRPRPNLDPRP,-0.18
15,RRIRPRPPRLPRPRPRPLCDPRP,-0.312
16,RRIRVRPPRLPRPRPRPFYQPRP,-0.537
17,RRIRMRPPRLPRPRPRPSDVPRP,0.141
18,RRIRMRPPRLPRPRPRPDHAPRP,0.0825
19,RRIRPRPPRLPRPRPRPLSRPRP,0.0978
20,RRIRLRPPRLPRPRPRPKCNPRP,-0.647
21,RRIRRRPPRLPRPRPRPHFIPRP,-0.0325
22,RRIRRRPPRLPRPRPRPYHCPRP,-0.37

row,Sequence,shrunken log2 fold change
1,RRIRDRPPRLPRPRPRPPTGPRP,0.522
2,RRIRARPPRLPRPRPRPSDMPRP,0.16
3,RRIRGRPPRLPRPRPRPADGPRP,-0.133
4,RRIRGRPPRLPRPRPRPPMWPRP,1.1
5,RRIRWRPPRLPRPRPRPEHPPRP,0.16
6,RRIRNRPPRLPRPRPRPQAMPRP,-0.0233
7,RRIRKRPPRLPRPRPRPNLHPRP,-0.184
8,RRIRTRPPRLPRPRPRPDYTPRP,-0.606
9,RRIRSRPPRLPRPRPRPNLDPRP,-0.0975
10,RRIRGRPPRLPRPRPRPESHPRP,0.124
11,RRIRRRPPRLPRPRPRPAAAPRP,0.941
12,RRIRVRPPRLPRPRPRPCMWPRP,0.0384
13,RRIRFRPPRLPRPRPRPLCWPRP,0.135
14,RRIRVRPPRLPRPRPRPQYKPRP,-0.527
15,RRIRSRPPRLPRPRPRPRMYPRP,-0.113
16,RRIRRRPPRLPRPRPRPHTSPRP,-0.0729
17,RRIRIRPPRLPRPRPRPRPCPRP,-0.0531
18,RRIRCRPPRLPRPRPRPRLTPRP,0.0689
19,RRIRLRPPRLPRPRPRPMMSPRP,-0.00436
20,RRIRVRPPRLPRPRPRPENGPRP,-0.158
21,RRIRGRPPRLPRPRPRPCIKPRP,0.268
22,RRIRARPPRLPRPRPRPRIIPRP,0.093

row,Sequence,shrunken log2 fold change
1,RRIRHRPPRLPRPRPRPMHAPRP,-9.3e-05
2,RRIRGRPPRLPRPRPRPDQYPRP,-0.212
3,RRIRMRPPRLPRPRPRPCPRPRP,0.167
4,RRIRWRPPRLPRPRPRPVAAPRP,0.855
5,RRIRCRPPRLPRPRPRPPSDPRP,0.213
6,RRIRTRPPRLPRPRPRPKQSPRP,0.113
7,RRIRERPPRLPRPRPRPREAPRP,0.419
8,RRIRMRPPRLPRPRPRPEECPRP,0.0665
9,RRIRYRPPRLPRPRPRPQISPRP,-0.0191
10,RRIRWRPPRLPRPRPRPLDRPRP,0.146
11,RRIRLRPPRLPRPRPRPIWAPRP,0.136
12,RRIRRRPPRLPRPRPRPYIDPRP,-0.339
13,RRIRERPPRLPRPRPRPHEYPRP,-0.0163
14,RRIRDRPPRLPRPRPRPQSTPRP,-0.466
15,RRIRLRPPRLPRPRPRPVNYPRP,-0.231
16,RRIRNRPPRLPRPRPRPEIDPRP,0.166
17,RRIRTRPPRLPRPRPRPDWPPRP,0.135
18,RRIRMRPPRLPRPRPRPWVLPRP,0.0155
19,RRIRSRPPRLPRPRPRPRRDPRP,0.297
20,RRIRFRPPRLPRPRPRPNREPRP,-0.181
21,RRIRFRPPRLPRPRPRPKCHPRP,-0.42
22,RRIRDRPPRLPRPRPRPQVDPRP,-0.0156

row,Sequence,shrunken log2 fold change
1,RRIRLRPPRLPRPRPRPEAHPRP,-0.187
2,RRIRHRPPRLPRPRPRPKDNPRP,-0.201
3,RRIRWRPPRLPRPRPRPICSPRP,-0.199
4,RRIRQRPPRLPRPRPRPPGGPRP,0.448
5,RRIRCRPPRLPRPRPRPYCGPRP,-0.888
6,RRIRWRPPRLPRPRPRPCDEPRP,-0.0781
7,RRIRVRPPRLPRPRPRPCMFPRP,-0.559
8,RRIRVRPPRLPRPRPRPEQRPRP,0.0562
9,RRIRNRPPRLPRPRPRPEKVPRP,-0.105
10,RRIRKRPPRLPRPRPRPFLSPRP,-0.0256
11,RRIRERPPRLPRPRPRPFIQPRP,-0.176
12,RRIRARPPRLPRPRPRPGSSPRP,-0.112
13,RRIRPRPPRLPRPRPRPQNKPRP,-0.479
14,RRIRDRPPRLPRPRPRPHQDPRP,0.00101
15,RRIRHRPPRLPRPRPRPKVFPRP,-0.00193
16,RRIRWRPPRLPRPRPRPLSWPRP,0.0993
17,RRIRPRPPRLPRPRPRPAVKPRP,0.171
18,RRIRERPPRLPRPRPRPAGEPRP,0.0657
19,RRIRHRPPRLPRPRPRPLRTPRP,1.02
20,RRIRERPPRLPRPRPRPHAVPRP,-0.34
21,RRIRTRPPRLPRPRPRPPYAPRP,-0.17
